Legend:
primary CLL cells = test: Monovalent VHH binding to primary CLL cells, flow cytometry; set-up: species or system human; conditions: n=5 samples; FIG. 2B
Excerpt: Peripheral blood (PB) mononuclear cells (PBMCs, ≥95% CD5^+CD19^+) were isolated from PB samples from untreated CLL patients and cryopreserved as described previously (Hallaert et al. (2008), Blood 112(13):5141-9). The study was approved by the medical ethics committee at the Amsterdam UMC. Written informed consent from all subjects was obtained. Thawed cells were kept in Iscove's Modified Dulbecco's Medium (IMDM; 12440-053, Thermo Fisher Scientific), supplemented with 10% fetal calf serum (F7524, Merck), 200 mM L-glutamine (25030-123, Thermo Fisher Scientific), 0.05 mM β-mercapto-ethanol (M6250, Merck) and 10.000 U/mL penicillin/streptomycin (15140-122, Thermo Fisher Scientific), hereafter referred to as complete IMDM.
CD40 expression on primary CLL cells was confirmed and VHH binding was tested as described in Example 2.

[1] = biological target: T1, human CD40 (CD40-transfected HEK293T cells) (Homo sapiens, UniProt P25942); test: Monovalent VHH binding to CD40-transfected HEK293T cells, Myc-tag flow cytometry; conditions: for average geometric mean fluorescence intensity (Myc-tag): CD40-transfected HEK293T cells, 2 experiments; for binding to CD40-expressing cells: detection of the Myc tag, FIG. 1B
T1 construct: expressed in transfected cells; host or cells: HEK293T
T1 sequence (P25942 21-277): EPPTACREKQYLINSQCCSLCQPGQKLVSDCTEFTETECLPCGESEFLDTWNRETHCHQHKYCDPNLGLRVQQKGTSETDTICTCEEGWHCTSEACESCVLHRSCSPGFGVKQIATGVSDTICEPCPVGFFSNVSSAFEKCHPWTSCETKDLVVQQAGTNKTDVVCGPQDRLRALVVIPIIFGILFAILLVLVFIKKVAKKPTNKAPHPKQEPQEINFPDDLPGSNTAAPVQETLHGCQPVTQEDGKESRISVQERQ
Method: The embryonic kidney cell line HEK293T, either wildtype (WT) or transfected with human CD40, was grown in Dulbecco's Modified Eagle Medium (41965-039, Thermo Fisher Scientific, Waltham, Mass., USA), supplemented with 10% fetal calf serum (F7524, Merck, Kenilworth, N.J., USA), 200 mM L-glutamine (25030-123, Thermo Fisher Scientific), 0.05 mM β-mercapto-ethanol (M6250, Merck) and 10,000 U/mL penicillin/streptomycin (15140-122, Thermo Fisher Scientific), hereafter referred to as complete DMEM.
CD40 expression on CD40-transfected cells was confirmed by incubation with a PE-conjugated anti-CD40 antibody (IM1936U, Beckman Coulter, Brea, Calif., USA) for 20 minutes at 4° C. […] Bound VHH was detected by sequential incubation with mouse-anti-Myc tag (05-274, Merck) and AF488-conjugated goat-anti-mouse (A-11001, Thermo Fisher Scientific) antibodies for 20 minutes at 4° C.
Samples were measured on a FACSCanto cytometer (BD Biosciences, Franklin Lakes, N.J., USA) and analyzed with Flowjo MacV10.

CD40 [2] = biological target: T2, CD40 (Homo sapiens, UniProt P25942); test: CD40 agonistic activity in primary CLL cells, 48 h, flow cytometry; assay type: cell-based; conditions: various concentrations, FIG. 3A-C
T2 construct: Primary chronic lymphocytic leukemia (CLL) cells express CD40 on the cell surface; endogenous in cells; host or cells: primary CLL PBMCs from untreated CLL patients
T2 sequence (P25942 21-277): as above
Method: PBMCs (≥90% CD5^+CD19^+) from untreated CLL patients were obtained and cryopreserved as described in Example 3. Thawed cells were kept in complete IMDM.
To assess whether binding of the VHH to CD40 has agonistic effects, primary CLL PBMCs were cultured for 48 hours in the presence of VHH, medium control or recombinant multimeric CD40 ligand (rmCD40L; 100 ng/mL, Bioconnect).
After 48 hours, cells were harvested, washed and incubated with AF700-conjugated anti-CD19 (557921), FITC-conjugated anti-CD80 (6109965), APC-conjugated anti-CD86 (555660, all BD Biosciences), PE-conjugated anti-CD5 (12-0059-42, Thermo Fisher Scientific) and PECy7-conjugated anti-CD95 (305621, Biolegend, San Diego, Calif., USA) antibodies for 20 minutes at 4° C. Alternatively, after 48 hours, cells were harvested and viability was measured using Mitotracker Orange (25-minute incubation at 37° C.) and To-pro-3 (10-minute incubation at room temperature; both Thermo Fisher Scientific). Samples were measured on a FACSCanto cytometer (BD Biosciences) and analyzed with Flowjo MacV10.
To assess whether binding of the VHH has agonistic effects, primary CLL PBMCs were cultured with the indicated concentrations of V19S76K-5C8, medium control or rmCD40L for 48 hours and analyzed by flow cytometry as described in Example 4.

CD40 [3] = biological target: T2, CD40; test: CD40 antagonistic activity in primary CLL cells: pre-incubation, then rmCD40L for 48 h; assay type: cell-based; conditions: 30 min pre-incubation, then rmCD40L 100 ng/mL for 48 hours; FIG. 4A-C
Method: PBMCs (≥90% CD5^+CD19^+) from untreated CLL patients were obtained and cryopreserved as described in […]. Thawed cells were kept in complete IMDM.
To test whether the VHH antagonizes CD40 stimulation, primary CLL PBMCs were pre-incubated with VHH or medium control for 30 minutes at 37° C. and subsequently cultured for 48 hours in the presence of rmCD40L (100 ng/mL).
After 48 hours, cells were analyzed by flow cytometry as described in Example 4.
To assess whether binding of the VHH has antagonistic effects, primary CLL PBMCs were pre-incubated with V19S76K-5C8 or medium control and then cultured with rmCD40L for 48 hours and analyzed by flow cytometry as described in Example 5.

human CD40 [4] = biological target: T3, human CD40 (human, UniProt P25942 21-277); test: flow cytometry, CD40+ CII cell line (n=3), non-linear regression curve
T3 construct: In the assays it stood on CD40-transfected HEK293T cells, primary CLL cells or the CLL-derived CII cell line; also called tumor necrosis factor receptor superfamily member 5; TNR5_HUMAN
T3 sequence (P25942 21-277 limits assumed): as the sequence (P25942 21-277) above
Method: (§1) FIG. 6: V19S76K-5C8 binds to CD40⁺ and Vγ9Vδ2+ cells. Cell lines were incubated with V19S76K-5C8 or medium control and bound bsVHH was detected using anti-llama IgG heavy and light chain antibodies by flow cytometry. (A) Bar plots and (B) non-linear regression analysis of V19S76K-5C8 binding to healthy donor-derived Vγ9Vδ2-T cell lines (n=3). (C) Bar plots and (D) non-linear regression analysis of V19S76K-5C8 binding to […] CD40⁺ CII cell line (n=3). […] (A, C: repeated-measures one-way ANOVA followed by Dunnett's post hoc test compared to condition without bsVHH; B, D: non-linear regression analysis).

[5] = biological target: human Vγ9Vδ2 T cell receptor (human) (UniProt Q99603); test: flow cytometry, healthy donor-derived Vγ9Vδ2-T cell lines (n=3), non-linear regression curve
human CD40 [6] = biological target: T3, human CD40; test: flow cytometry on CD40+ CII cells, anti-llama IgG detection, non-linear regression
Method: as §1

[7] = biological target: human Vγ9Vδ2 T cell receptor (human) (UniProt Q99603); test: flow cytometry on healthy donor-derived Vγ9Vδ2-T cell lines, anti-llama IgG detection, non-linear regression

| average geometric mean fluorescence intensity (Myc-tag) ([1]; VHH concentration 1 pM) | average geometric mean fluorescence intensity (Myc-tag) ([1]; VHH concentration 10 pM) | average geometric mean fluorescence intensity (Myc-tag) ([1]; VHH concentration 100 pM) | average geometric mean fluorescence intensity (Myc-tag) ([1]; VHH concentration 1 nM) | average geometric mean fluorescence intensity (Myc-tag) ([1]; VHH concentration 10 nM) | average geometric mean fluorescence intensity (Myc-tag) ([1]; VHH concentration 100 nM) | binding to CD40-expressing cells [1] | EC50 (read off the curve) (human CD40 [4]) [nM] | EC50 (read off the curve) [5] [nM] | Kd (human CD40 [6]) [nM] | Kd [7] [nM] | Molecule | binding to primary CLL cells (primary CLL cells) | CD40 stimulation (viability, CD86 and CD95 expression) (CD40 [2]) | prevention of CD40L-induced CD40 stimulation (viability, CD86 and CD95 expression) (CD40 [3]) |
| --- | --- | --- | --- | --- | --- | --- | --- | --- | --- | --- | --- | --- | --- | --- |
| 5031 | 4938 | 5538 | 6783 | 9101 | 16175 | bound to the CD40-expressing cells | – | – | – | – | V19t: monovalent anti-CD40 VHH V19 with C-terminal Myc- and His6-tag, SEQ ID NO:15 (protein, antibody sequence) VHH: QVQLQESGGGLVQAGGSLRLSCAASGRTFGRSAMGWFRQAPGKEREFVAAIGTRGGSTKYADSVKGRFTISTDNASNTVYLQMDSLKPEDTAVYRCAVRGPGYPSAAIFQDEYHYWGQGTQVTVSSGLEGHSDHMEQKLISEEDLNRISDHHHHHH | higher binding intensity than V12t | did not induce any of these effects | prevented CD40 stimulation in a dose-dependent manner |
| – | – | – | – | – | – | – | ~10 | 1 | 10.9 | 1.2 | V19S76K-5C8 (bispecific antibody, also called bispecific anti-CD40-anti-Vγ9Vδ2 TCR VHH V19S76K-5C8; bsVHH) QVQLQESGGGLVQAGGSLRLSCAASGRTFGRSAMGWFRQAPGKEREFVAAIGTRGGSTKYADSVKGRFTISTDNAKNTVYLQMDSLKPEDTAVYRCAVRGPGYPSAAIFQDEYHYWGQGTQVTVSSGGGGSEVQLVESGGGLVQAGGSLRLSCAASGRPFSNYAMGWFRQAPGKEREFVAAISWSGGSTSYADSVKGRFTISRDNAKNTVYLQMNSPKPEDTAIYYCAAQFSGADYGFGRLGIRGYEYDYWGQGTQVTVSS | – | – | – |
| – | – | – | – | – | – | bound to the CD40-expressing cells | – | – | – | – | V15t: monovalent anti-CD40 VHH V15 with C-terminal Myc- and His6-tag, SEQ ID NO:16 (protein, antibody sequence) VHH: EVQLQESGGGLVQAGGSLRLSCVTSGSAFSSDTMGWFRQAPGKQRELVASISSRGVREYADSVKGRFTISRDNAKNTVYLQMNSLQPEDTAVYYCNRGALGLPGYRPYNNWGQGTQVTVSSGLEGHSDHMEQKLISEEDLNRISDHHHHHH | higher binding intensity than V12t | did not induce any of these effects | prevented CD40 stimulation in a dose-dependent manner |
